Source: patent publication US20140087995A1 (published 2014)
Where a chain is given by its changes, count along the chain named. Numbered stars: 1 amine (or outer) side, 2 acyl side, 3 side chain; on linkers, the order of the positions; unused ones are H or OH. Bridge positions count the residues as written; N and C are the ends. Side chains are listed from the residue outwards. Ends that are not written are not given here. * marks the point of attachment. C20 diacid = O=C(O)CCCCCCCCCCCCCCCCCCC(=O)*; γGlu = O=C(O)[C@H](CCC(=O)[*:2])N[*:1]

T1: human calcitonin receptor (human, UniProt P30988 25-474)
T1 construct: whole, on cells; Assay used cell membranes of the transfected BHK cells; also called hCTR; hCT
T1 sequence (looked up): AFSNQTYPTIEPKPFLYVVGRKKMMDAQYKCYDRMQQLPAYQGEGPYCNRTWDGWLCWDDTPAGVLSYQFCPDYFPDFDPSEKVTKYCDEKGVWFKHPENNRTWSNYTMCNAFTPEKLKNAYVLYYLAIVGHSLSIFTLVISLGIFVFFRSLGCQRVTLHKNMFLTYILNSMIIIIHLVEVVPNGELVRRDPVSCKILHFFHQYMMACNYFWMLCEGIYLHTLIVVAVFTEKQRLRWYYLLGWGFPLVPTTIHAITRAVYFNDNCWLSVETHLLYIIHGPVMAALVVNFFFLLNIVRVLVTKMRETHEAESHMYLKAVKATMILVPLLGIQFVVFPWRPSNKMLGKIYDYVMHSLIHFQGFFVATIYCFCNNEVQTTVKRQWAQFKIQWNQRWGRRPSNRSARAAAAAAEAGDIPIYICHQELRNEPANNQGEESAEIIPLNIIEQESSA

T2: human calcitonin receptor (human, UniProt P30988 25-474)
T2 construct: whole, on cells; Used as cell membranes prepared from the transfected BHK cells (Assay VII), not as intact cells; also called hCTR; hCT
T2 sequence (looked up): T1 sequence (looked up)

B1: N^ε1-[(4S)-4-carboxy-4-(19-carboxynonadecanoylamino)butanoyl]-[His14,Arg17,Pro21,Pro27,Pro31]-h-amylin (peptide)
peptide: K([γGlu-C20 diacid])CNTATCATQRLAHFLRHSSPNFGAIPSSTPVGSNTY-NH2
modifications: disulfide 2-7; N-terminus assumed
SMILES: CC[C@H](C)[C@H](NC(=O)[C@H](C)NC(=O)CNC(=O)[C@H](Cc1ccccc1)NC(=O)[C@H](CC(N)=O)NC(=O)[C@@H]1CCCN1C(=O)[C@H](CO)NC(=O)[C@H](CO)NC(=O)[C@H](Cc1c[nH]cn1)NC(=O)[C@H](CCCNC(=N)N)NC(=O)[C@H](CC(C)C)NC(=O)[C@H](Cc1ccccc1)NC(=O)[C@H](Cc1c[nH]cn1)NC(=O)[C@H](C)NC(=O)[C@H](CC(C)C)NC(=O)[C@H](CCCNC(=N)N)NC(=O)[C@H](CCC(N)=O)NC(=O)[C@@H](NC(=O)[C@H](C)NC(=O)[C@@H]1CSSC[C@H](NC(=O)[C@@H](N)CCCCNC(=O)CC[C@H](NC(=O)CCCCCCCCCCCCCCCCCCC(=O)O)C(=O)O)C(=O)N[C@@H](CC(N)=O)C(=O)N[C@@H]([C@@H](C)O)C(=O)N[C@@H](C)C(=O)N[C@@H]([C@@H](C)O)C(=O)N1)[C@@H](C)O)C(=O)N1CCC[C@H]1C(=O)N[C@@H](CO)C(=O)N[C@@H](CO)C(=O)N[C@H](C(=O)N1CCC[C@H]1C(=O)N[C@H](C(=O)NCC(=O)N[C@@H](CO)C(=O)N[C@@H](CC(N)=O)C(=O)N[C@H](C(=O)N[C@@H](Cc1ccc(O)cc1)C(N)=O)[C@@H](C)O)C(C)C)[C@@H](C)O
notes: Synthetic analogue; also called compound 62
B2: N^ε1-[(4S)-4-carboxy-4-[[(4S)-4-carboxy-4-(19-carboxynonadecanoylamino)butanoyl]amino]butanoyl]-[Asp14,Arg17,Pro21,Pro27,Arg35]-h-amylin (peptide)
peptide: K([γGlu-γGlu-C20 diacid])CNTATCATQRLADFLRHSSPNFGAIPSSTNVGSRTY-NH2
modifications: disulfide 2-7; N-terminus assumed
SMILES: CC[C@H](C)[C@H](NC(=O)[C@H](C)NC(=O)CNC(=O)[C@H](Cc1ccccc1)NC(=O)[C@H](CC(N)=O)NC(=O)[C@@H]1CCCN1C(=O)[C@H](CO)NC(=O)[C@H](CO)NC(=O)[C@H](Cc1c[nH]cn1)NC(=O)[C@H](CCCNC(=N)N)NC(=O)[C@H](CC(C)C)NC(=O)[C@H](Cc1ccccc1)NC(=O)[C@H](CC(=O)O)NC(=O)[C@H](C)NC(=O)[C@H](CC(C)C)NC(=O)[C@H](CCCNC(=N)N)NC(=O)[C@H](CCC(N)=O)NC(=O)[C@@H](NC(=O)[C@H](C)NC(=O)[C@@H]1CSSC[C@H](NC(=O)[C@@H](N)CCCCNC(=O)CC[C@H](NC(=O)CC[C@H](NC(=O)CCCCCCCCCCCCCCCCCCC(=O)O)C(=O)O)C(=O)O)C(=O)N[C@@H](CC(N)=O)C(=O)N[C@@H]([C@@H](C)O)C(=O)N[C@@H](C)C(=O)N[C@@H]([C@@H](C)O)C(=O)N1)[C@@H](C)O)C(=O)N1CCC[C@H]1C(=O)N[C@@H](CO)C(=O)N[C@@H](CO)C(=O)N[C@H](C(=O)N[C@@H](CC(N)=O)C(=O)N[C@H](C(=O)NCC(=O)N[C@@H](CO)C(=O)N[C@@H](CCCNC(=N)N)C(=O)N[C@H](C(=O)N[C@@H](Cc1ccc(O)cc1)C(N)=O)[C@@H](C)O)C(C)C)[C@@H](C)O
notes: Synthetic analogue of human amylin; also called compound 52
B3: N^α1 N^α1-[(4S)-4-carboxy-4-[[(4S)-4-carboxy-4-(19-carboxynonadecanoylamino)butanoyl]amino]butanoyl]-[Glu14,Arg17,Pro21,Pro27]-h-amylin (peptide)
peptide: {C20 diacid-γGlu-γGlu}-KCNTATCATQRLAEFLRHSSPNFGAIPSSTNVGSNTY-NH2
modifications: disulfide 2-7
SMILES: CC[C@H](C)[C@H](NC(=O)[C@H](C)NC(=O)CNC(=O)[C@H](Cc1ccccc1)NC(=O)[C@H](CC(N)=O)NC(=O)[C@@H]1CCCN1C(=O)[C@H](CO)NC(=O)[C@H](CO)NC(=O)[C@H](Cc1c[nH]cn1)NC(=O)[C@H](CCCNC(=N)N)NC(=O)[C@H](CC(C)C)NC(=O)[C@H](Cc1ccccc1)NC(=O)[C@H](CCC(=O)O)NC(=O)[C@H](C)NC(=O)[C@H](CC(C)C)NC(=O)[C@H](CCCNC(=N)N)NC(=O)[C@H](CCC(N)=O)NC(=O)[C@@H](NC(=O)[C@H](C)NC(=O)[C@@H]1CSSC[C@H](NC(=O)[C@H](CCCCN)NC(=O)CC[C@H](NC(=O)CC[C@H](NC(=O)CCCCCCCCCCCCCCCCCCC(=O)O)C(=O)O)C(=O)O)C(=O)N[C@@H](CC(N)=O)C(=O)N[C@@H]([C@@H](C)O)C(=O)N[C@@H](C)C(=O)N[C@@H]([C@@H](C)O)C(=O)N1)[C@@H](C)O)C(=O)N1CCC[C@H]1C(=O)N[C@@H](CO)C(=O)N[C@@H](CO)C(=O)N[C@H](C(=O)N[C@@H](CC(N)=O)C(=O)N[C@H](C(=O)NCC(=O)N[C@@H](CO)C(=O)N[C@@H](CC(N)=O)C(=O)N[C@H](C(=O)N[C@@H](Cc1ccc(O)cc1)C(N)=O)[C@@H](C)O)C(C)C)[C@@H](C)O
notes: also called compound 15
B4: N^α1-[(4S)-4-carboxy-4-(19-carboxynonadecanoylamino)butanoyl]-[Glu14,Arg17,Pro21,Pro26]-h-amylin (peptide)
peptide: {C20 diacid-γGlu}-KCNTATCATQRLAEFLRHSSPNFGAPLSSTNVGSNTY-NH2
modifications: disulfide 2-7
SMILES: CC(C)C[C@H](NC(=O)[C@H](CCCNC(=N)N)NC(=O)[C@H](CCC(N)=O)NC(=O)[C@@H](NC(=O)[C@H](C)NC(=O)[C@@H]1CSSC[C@H](NC(=O)[C@H](CCCCN)NC(=O)CC[C@H](NC(=O)CCCCCCCCCCCCCCCCCCC(=O)O)C(=O)O)C(=O)N[C@@H](CC(N)=O)C(=O)N[C@@H]([C@@H](C)O)C(=O)N[C@@H](C)C(=O)N[C@@H]([C@@H](C)O)C(=O)N1)[C@@H](C)O)C(=O)N[C@@H](C)C(=O)N[C@@H](CCC(=O)O)C(=O)N[C@@H](Cc1ccccc1)C(=O)N[C@@H](CC(C)C)C(=O)N[C@@H](CCCNC(=N)N)C(=O)N[C@@H](Cc1c[nH]cn1)C(=O)N[C@@H](CO)C(=O)N[C@@H](CO)C(=O)N1CCC[C@H]1C(=O)N[C@@H](CC(N)=O)C(=O)N[C@@H](Cc1ccccc1)C(=O)NCC(=O)N[C@@H](C)C(=O)N1CCC[C@H]1C(=O)N[C@@H](CC(C)C)C(=O)N[C@@H](CO)C(=O)N[C@@H](CO)C(=O)N[C@H](C(=O)N[C@@H](CC(N)=O)C(=O)N[C@H](C(=O)NCC(=O)N[C@@H](CO)C(=O)N[C@@H](CC(N)=O)C(=O)N[C@H](C(=O)N[C@@H](Cc1ccc(O)cc1)C(N)=O)[C@@H](C)O)C(C)C)[C@@H](C)O
notes: also called compound 7
B5: N^α1-[(4S)-4-carboxy-4-(19-carboxynonadecanoylamino)butanoyl]-[Arg17,Pro21,Pro27,Arg34]-h-amylin (peptide)
peptide: KCNTATCATQRLANFLRHSSPNFGAIPSSTNVGRNTY
modifications: C20 diacid-gGlu on the alpha amino group of the N-terminal Lys1; disulfide Cys2-Cys7; C-terminal amide
notes: also called compound 39
B6: N^α1-[(4S)-4-carboxy-4-(19-carboxynonadecanoylamino)butanoyl]-[Arg17,Pro21,Pro27,Glu35]-h-amylin (peptide)
peptide: B5 peptide with R34S, N35E
modifications: C20 diacid-gGlu on the alpha amino group of the N-terminal Lys1; disulfide Cys2-Cys7; C-terminal amide
notes: also called compound 23
B7: N^α1-[(4S)-4-carboxy-4-(19-carboxynonadecanoylamino)butanoyl]-[Arg17,Pro21,Pro27,His34]-h-amylin (peptide)
peptide: B5 peptide with R34H
modifications: C20 diacid-gGlu on the alpha amino group of the N-terminal Lys1; disulfide Cys2-Cys7; C-terminal amide
notes: also called compound 40
B8: N^α1-[(4S)-4-carboxy-4-(19-carboxynonadecanoylamino)butanoyl]-[Arg17,Pro21,Pro27,Lys35]-h-amylin (peptide)
peptide: B5 peptide with R34S, N35K
modifications: C20 diacid-gGlu on the alpha amino group of the N-terminal Lys1; disulfide Cys2-Cys7; C-terminal amide
notes: also called compound 34
B9: N^α1-[(4S)-4-carboxy-4-(19-carboxynonadecanoylamino)butanoyl]-[Arg17,Pro21,Pro27,Pro31,Glu35]-h-amylin (peptide)
peptide: {C20 diacid-γGlu}-KCNTATCATQRLANFLRHSSPNFGAIPSSTPVGSETY-NH2
modifications: disulfide 2-7
SMILES: CC[C@H](C)[C@H](NC(=O)[C@H](C)NC(=O)CNC(=O)[C@H](Cc1ccccc1)NC(=O)[C@H](CC(N)=O)NC(=O)[C@@H]1CCCN1C(=O)[C@H](CO)NC(=O)[C@H](CO)NC(=O)[C@H](Cc1c[nH]cn1)NC(=O)[C@H](CCCNC(=N)N)NC(=O)[C@H](CC(C)C)NC(=O)[C@H](Cc1ccccc1)NC(=O)[C@H](CC(N)=O)NC(=O)[C@H](C)NC(=O)[C@H](CC(C)C)NC(=O)[C@H](CCCNC(=N)N)NC(=O)[C@H](CCC(N)=O)NC(=O)[C@@H](NC(=O)[C@H](C)NC(=O)[C@@H]1CSSC[C@H](NC(=O)[C@H](CCCCN)NC(=O)CC[C@H](NC(=O)CCCCCCCCCCCCCCCCCCC(=O)O)C(=O)O)C(=O)N[C@@H](CC(N)=O)C(=O)N[C@@H]([C@@H](C)O)C(=O)N[C@@H](C)C(=O)N[C@@H]([C@@H](C)O)C(=O)N1)[C@@H](C)O)C(=O)N1CCC[C@H]1C(=O)N[C@@H](CO)C(=O)N[C@@H](CO)C(=O)N[C@H](C(=O)N1CCC[C@H]1C(=O)N[C@H](C(=O)NCC(=O)N[C@@H](CO)C(=O)N[C@@H](CCC(=O)O)C(=O)N[C@H](C(=O)N[C@@H](Cc1ccc(O)cc1)C(N)=O)[C@@H](C)O)C(C)C)[C@@H](C)O
notes: also called compound 28
B10: N^α1-[2-[2-[2-[[2-[2-[2-[[(4S)-4-carboxy-4-(19-carboxynonadecanoylamino)butanoyl]amino]ethoxy]ethoxy]acetyl]amino]ethoxy]ethoxy]acetyl]-[Glu14,Arg17,Pro21,Pro27 … (peptide)
peptide: B5 peptide with N14E, R34S
modifications: C20 diacid-gGlu-2xOEG on the alpha amino group of the N-terminal Lys1; disulfide Cys2-Cys7; C-terminal amide
notes: also called compound 19

Each binder was assayed against T1, human calcitonin receptor (assay: SPA radioligand competition (125I-calcitonin), membranes of BHK cells with human calcitonin receptor).
In short: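 BHK hCTR membranes 35 ng/μL + SPA beads 0.05 mg/well; buffer 50 mM Hepes pH 7.4, 1 mM CaCl2, 5 mM MgCl₂, 0.1% OA, 0.02% Tween20. 120 min, 25° C., shaking. Scintillation count; IC50 by one-site binding competition.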

| Binder | IC50 |
| --- | --- |
| B1 | 6.17 nM |
| B2 | 56.9 nM |

Each binder was assayed against T2, human calcitonin receptor (assay: SPA competition against 125I-calcitonin, membranes with human calcitonin receptor (Assay VII)).
Procedure: Membranes were prepared in the following way; the cells were rinsed with PBS and incubated with Versene for approximately 5 min before harvesting. The cells were flushed with PBS and the cell-suspension was centrifuged for 5 min at 1000 rpm. Cells were homogenized (Ultrathurrax) in a buffer containing 20 mM Na-HEPES and 10 mM EDTA (pH 7.4) and centrifuged at 20.000 rpm for 15 min. The resulting pellet was resuspended, homogenized and centrifuged (20.000 rpm, 15 min) in a buffer containing 20 mM Na-HEPES and 0.1 mM EDTA (pH 7.4, buffer 2). The resulting pellet was resuspended in buffer 2 and protein concentration was measured (BCA protein Assay, Pierce). The homogenate was kept cold during the whole procedure. The membranes were kept at −80° C. until use. Assay was performed in a 384 well Optiplate (PerkinElmer) in a total volume of 40 ul. Membranes were mixed with SPA beads. Final concentration of membranes 35 ng/μL final and Final concentration of SPA beads was 0.05 mg/well. Test-compounds were dissolved in DMSO and further diluted in assay buffer (50 mM Hepes, pH 7.4, 1 mM CaCl2, 5 mM MgCl₂, 0.1% OA and 0.02% Tween20). […] The final mixture was incubated for 120 min with shaking at 400 rpm at 25° C. prior to centrifugation (1500 rpm, 10 min). Samples were analyzed on TopCounter™ (Packard). The […] was calculated using (one site binding competition analysis) GraphPad Prism5 as a measure of receptor affinity.

| Binder | IC50 |
| --- | --- |
| B3 | 15.5 nM |
| B4 | 11.1 nM |
| B5 | 19.3 nM |
| B6 | 21.8 nM |
| B7 | 17.1 nM |
| B8 | 73.4 nM |
| B9 | 12.5 nM |
| B10 | 20.4 nM |
